From patent US10323078B2, “Isolated peptides and fragments thereof from fibrinogen for use as drugs, particularly in skin inflammatory diseases” (Universite Paris Descartes, priority 2015, dated 2019) come the findings set out here.

For data set [1], the system named is HaCaT, NHDK, ThP1, MRC5 and HDF cell lines. Description: Cell viability (MTT) after treatment with Fg1 and Fg2 recombinant peptides. It counts as cell-based, human. The following applies: all 5 cell lines; 0.22 to 7 mM for 18 h at 37° C. The procedure:
FIG. 10: Evaluation of cell viability after treatment with the Fg1 and Fg2 recombinant peptides. Human immortalized and primary keratinocyte cell lines HaCaT and NHDK; immortalized monocytes cell line ThP1, and immortalized and primary fibroblast cell lines MRCS and HDF were incubated with Fg1 and Fg2 recombinant peptides with concentrations ranging from 0.22 to 7 mM for 18 h at 37° C. Cell viability was assessed using the MTT assay as described in Materials and Methods.
Crystal violet staining was used to determine the number of adherent cells in 96-well plates. Briefly, after incubation with the test compound, the culture medium was discarded and the cells were incubated with a 0.05% crystal violet solution (Sigma) for 30 min at room temperature. After washing with PBS, 100% methanol was added, and the absorbance was measured spectrophotometrically at 540 nm on an ELISA multiwell reader. The MTT ([…]) assay was performed to test cell viability in 96-well plates. […] After thorough mixing, the absorbance was measured at 540 nm.
(§1) Whole P. acnes bacteria are labelled by biotinylation, pre-treated or not with the peptides and contacted with the various cell lines. After removal of the unfixed bacteria, the adhesion activity was measured spectrophotometrically by using the streptavidin-peroxidase conjugate and a chromogenic substrate.

For the next data set, the system named is P. acnes RON strain. Description: Adhesion assay, biotinylated P. acnes binding to keratinocytes (NHDK). It is filed as cell-based, Propionibacterium acnes. The following applies: bacteria pretreated 0.87 to 7 μM, 1 h at 37° C. The procedure:
The bacterial suspension was adjusted at 600 nm to the desired concentration, pretreated with peptides Fg1 and Fg2 at the final concentration ranging from 0.87 to 7 μM for 1 h at 37° C. and deposited on the previously saturated cells with a solution of PBS SVF 2% for 2 h. After incubation for 1 h at 37° C., unbound bacteria are removed by 3 washes with PBS and fixed bacteria are detected by a streptavidin-peroxidase solution of 0.5 μg/ml for 30 min.
as §1
The ability of P. acnes strains 6919, RON and PIE was tested at 3 concentrations to adhere to various cells lines. It has been shown that the strains of P. acnes tested bound to the three kind of cell lines tested (keratinocytes, monocytes and fibroblast) with a maximum adhesion strength found for keratinocytes (FIG. 11). Knowing that P. acnes is able to recognize fibrinogen, it was used human and bovine whole fibrinogen to compete the interaction between the bacteria and the target cell. […] Then, the ability Fg1 to inhibit the adhesion of bacteria and RON PIE was evaluated on the 3 main types cell. […]

A further data set deals with NHDK cells. Description: O2°− production by P. acnes-stimulated NHDK. It is filed as cell-based, human. The following applies: 0.87 to 7 μM. The procedure:
(§2) For experiences of stimulation with P. acnes, cells were incubated with the P. acnes suspension adjusted at the appropriate concentration, pre-treated for 1 h at 37° C. or not with fibrinogen recombinant peptides Fg1 and Fg2 at the concentrations 0.87, 1.75, 3.5 or 7 μM for the desired period of time at 37° C. in 5% CO2.
All cells lines (5·10^4 to 10^5 cells/well) were seeded in 96-well plates (Corning Costar, Brumath, France) and treated as previously described. After stimulation, cells were washed three times in PBS and incubated with 100 μl per wells of 5 μM DHE (for determination of O2^●−) or 5 μM H2-DCFDA (for determination of H2O2) for 30 min as described previously and fluorescence intensity was recorded every hour over a period of 5 h. Fluorescence excitation/emission maxima were for DHE: 480/610 nm and for H2-DCFDA: 507/525 nm. At the end of the experiment, the number of adherent cells was evaluated by the crystal violet assay as described below. O2^●−, and H2O2 were assayed by spectrofluorimetry on a Fusion spectrofluorimeter (PackardBell, Paris, France). Levels of ROS were calculated in each sample as follows: reactive oxygen species rate (arbitrary units/min/10^6 cells)=(fluorescence intensity [arbitrary units] at T5h—fluorescence intensity [arbitrary units] at To/300 minutes/number of adherent cells as measured by the crystal violet assay, and were expressed as arbitrary unit (A.U.).
(§3) To assess the efficacy of Fg1 recombinant peptide, the production of O2^∘− and H2O2 by HaCaT cells NHDK, THP-1, MRC5 and HDF stimulated by pretreated P. acnes strains 6919, RON and PIE was measured. The amount of ROS produced was compared to that produced by the stimulated cells with untreated bacteria. Production baseline was obtained by measuring ROS on unstimulated cells. The production of IL-1ß, IL-8, IL-12 and TNF-α was also measured in all conditions cited above. The measurement of the production of ROS is performed by spectrofluorimetry in the presence of specific fluorochromes directly on the monolayer cell. Measurement of cytokine production was performed in parallel on the cell culture supernatant.
(§4) Two sets of experiments were implemented: 1) The cells were stimulated (18 h at 37° C.) by P. acnes strains previously pretreated with Fg1 and Fg2 peptides at the final concentrations ranging from 0.87 to 7 μM for 1 h at 37° C.; and 2) The cells were pretreated first with Fg1 and Fg2 peptides at the final concentrations ranging from 0.87 to 7 μM for 24 h at 37° C. and stimulated (18 h at 37° C.) by P. acnes strains.

In another data set the test system is HDF cells. Description: IL-8 production by P. acnes-stimulated HDF (ELISA). It is filed as cell-based, human. The following applies: 0.87 to 7 μM. The procedure: as §2
(§5) Human IL-1ß, IL-8, IL-12, hBD-2, and TNF-α protein concentration was measured in the supernatants of stimulated cells using various ELISA Set kits (Ready-Set-Go kit from eBioscience for acne experiments, and for psoriasis experiments the Duo set IL-8 kit from R&D Systems and the BD-2 Human Development (hBD-2) from Peprotech) according to the manufacturer's instructions. We used serial dilutions of recombinant human IL-1ß, IL-8, IL-12 and TNF-α for standard curve. The optical density was determined at 450 nm at a wavelength correction of 540 nm.
as §3, §4

The subject of another data set is MRC5 cells. Description: TNF-α production by P. acnes-stimulated MRC5 (ELISA). It counts as cell-based, human. The following applies: 0.87 to 7 μM. As to the method:
as §2, §5, §3, §4
In general terms: In an ELISA, binding on a coated surface is turned into a signal by an enzyme label.

[2] abbreviates: P. acnes 6919, set I, bacteria first pretreated.
Setting [3] is: P. acnes 6919, set II, cells first pretreated.
Setting [4] is: P. acnes PIE, set I, bacteria first pretreated.
The mark [5] stands for this setting: P. acnes PIE, set II, cells first pretreated.
Where [6] appears, read: P. acnes RON, set I, bacteria first pretreated.
[7] abbreviates: P. acnes RON, set II, cells first pretreated.

B1: MKRMVSWSFHKLKTMKHLLLLLLCVFLVKSQGVNDNEEGFFSARGHRPLDKKREEAPSLRPAPPPISGGGYRARPAKAAATQKKVERKAPDAGGCLHADPDLGVLC (protein)
chain: MKRMVSWSFHKLKTMKHLLLLLLCVFLVKSQGVNDNEEGFFSARGHRPLDKKREEAPSLRPAPPPISGGGRARPAKAAATQKKVERKAPDAGGCLHADPDLGVLCMKRMVSWSFHKLKTMKHLLLLLLCVFLVKSQGVNDNEEGFFSARGHRPLDKKREEAPSLRPAPPPISGGGYRARPAKAAATQKKVERKAPDAGGCLHADPDLGVLC
modifications: GST fusion; fragment Fg1
notes: fragment of Bß chain of human fibrinogen having 106 amino acids; recombinant GST-fused peptide expressed in E. coli
Regarding B1, in data set [1], the “Cytotoxic activity (cell viability, MTT)” value is listed as “no cytotoxic activity”. For the same molecule, the “Inhibition of adhesion of P. acnes RON strain” value with P. acnes RON strain is recorded as “inhibits the adhesion of RON strain in a dose-dependent manner”. In addition, the “Inhibition of Superoxide anion (O2°−) production” value in the data set with NHDK cells (setting [2]), in the data set with NHDK cells (setting [3]), with NHDK cells (setting [4]), in the data set with NHDK cells (setting [5]), with NHDK cells (setting [6]) and in the data set on NHDK cells (setting [7]) was “pos” in each case. Moreover, the “Inhibition of Interleukine 8 (IL-8) production” value with HDF cells (setting [2]), with HDF cells (setting [3]), in the data set with HDF cells (setting [4]), in the data set on HDF cells (setting [5]), in the data set with HDF cells (setting [6]) and with HDF cells (setting [7]) was “pos” throughout. The “Inhibition of Interleukine TNF alpha (TNF-α) production” value with MRC5 cells (setting [2]), with MRC5 cells (setting [3]), in the data set with MRC5 cells (setting [4]), in the data set with MRC5 cells (setting [5]), with MRC5 cells (setting [6]) and with MRC5 cells (setting [7]) was “pos” each time.
